Test results as given in patent publication US20160068860A1, “TRANSGENIC PLANTS” (CONSEJO SUPERIOR DE INVESTIGACIONES CIENTIFICAS (CSIC), priority 2013, published 2016).

What was measured:
[1] = tested on: PP2CA; test: In vitro phosphatase activity assay with pNPP substrate, PP2CA; format: biochemical, Arabidopsis; settings: absence of ABA
Description: (§1) Phosphatase activity was measured using as a substrate either pNPP or phosphorylated ΔC-ABF2, ΔC-ABI5 and SLAC11-186 proteins. For the pNPP substrate, assays were performed in a 100 μl solution containing 25 mM Tris-HCl pH 7.5, 2 mM MnCl2 and 5 mM pNPP. Assays contained 2 μM phosphatase (PP2CA or HAB1), 4 μM receptor and the indicated concentrations of ABA. Phosphatase activity was recorded with a ViktorX5 reader at 405 nm every 60 seconds over 30 minutes and the activity obtained after 30 minutes is indicated in the graphics. In order to obtain phosphorylated ΔCABF2, ΔC-ABI5 and SLAC11-186 proteins, OST1 phosphorylation assays were done basically as described previously (Dupeux et al., 2011 b). ΔC-ABF2 and SLAC11-186 N-terminal fragments were prepared as described (Antoni et al., 2012; Vahisalu et al., 2010). ΔC-ABI5 recombinant protein (amino acid residues 1-200, containing the C1, C2 and C3 target sites of ABA-activated SnRK2s) was expressed in the pETM11 vector as described above. The reaction mixture containing the OST1 kinase and either ΔCABF2, ΔC-ABI5 or SLAC11-186 recombinant proteins were incubated for 50 min at room temperature in 30 μl of kinase buffer: 20 mM Tris-HCl pH 7.8, 20 mM MgCl2, 2 mM MnCl2, and 3.5 μCi of γ-32ATP (3000 Ci/mmol). Thus, OST1 was autophosphorylated and in turn it phosphorylated ΔC-ABF2, ΔC-ABI5 and SLAC11-186 proteins. Next, they were used as substrates of PP2CA that was preincubated (or not) for 10 with PYL4 or PYL4A194T (1:10 phosphatase:receptor ratio) either in the absence or presence of 30 μM ABA. The reaction was stopped by adding Laemmli buffer and the proteins were separated by SDS-PAGE using an 8% acrylamide gel and transferred to an Immobilon-P membrane (Millipore). Radioactivity was detected and quantified using a Phosphorimage system (FLA5100, Fujifilm). After scanning, the same membrane was used for Ponceau staining. The data presented are averages of at least three independent experiments.

[2] = target: T1, PP2CA (Arabidopsis thaliana, UniProt O80920+P49598, A194T); test: as above; format: biochemical; design: made in house; host or cells: E. coli BL21 (DE3); settings: for inhibitory effect on the activity of PP2CA with respect to PYL4: absence of ABA, 2 μM phosphatase, 4 μM receptor
Description: as §1

[3] = target: T1, PP2CA; test: BiFC assay with PP2CA in N. benthamiana leaves; format: cell-based; design: expressed in transfected cells; host or cells: N. benthamiana leaf epidermal cells (Agroinfiltration); settings: no exogenous ABA; compared to PYL4
Description: Experiments were performed basically as described by Voinnet et al., (2003). The different binary vectors described above where introduced into Agrobacterium tumefaciens C58C1 (pGV2260) (Deblaere et al., 1985) by electroporation and transformed cells were selected in LB plates supplemented with kanamycin (50 μg/ml). Then, they were grown in liquid LB medium to late exponential phase and cells were harvested by centrifugation and resuspended in 10 mM morpholinoethanesulphonic (MES) acid-KOH pH 5.6 containing 10 mM MgCl2 and […] acetosyringone to an OD600 nm of 1. These cells were mixed with an equal volume of Agrobacterium C58C1 (pCH32 35S:p19) expressing the silencing suppressor p19 of tomato bushy stunt virus (Voinnet et al., 2003) so that the final density of Agrobacterium solution was about 1. Bacteria were incubated for 3 h at room temperature and then injected into young fully expanded leaves of 4-week-old N. benthamiana plants. Leaves were examined after 3-4 days under a Leica TCS-SL confocal microscope and laser scanning confocal imaging system. Quantification of fluorescent protein signal was done as described (Gampala et al., 2007) using the National Institutes of Health (NIH) Image software ImageJ v1.37. […]

[4] = tested on: RAB18; test: Quantitative RT-PCR of ABA-responsive gene RAB18 in OE plants; format: in vivo, Arabidopsis thaliana
Description: ABA treatment, RNA extraction and quantitative RT-PCR amplifications were performed as previously described (Saez et al., 2004).

T1 sequence (P49598 whole entry, one chain of several): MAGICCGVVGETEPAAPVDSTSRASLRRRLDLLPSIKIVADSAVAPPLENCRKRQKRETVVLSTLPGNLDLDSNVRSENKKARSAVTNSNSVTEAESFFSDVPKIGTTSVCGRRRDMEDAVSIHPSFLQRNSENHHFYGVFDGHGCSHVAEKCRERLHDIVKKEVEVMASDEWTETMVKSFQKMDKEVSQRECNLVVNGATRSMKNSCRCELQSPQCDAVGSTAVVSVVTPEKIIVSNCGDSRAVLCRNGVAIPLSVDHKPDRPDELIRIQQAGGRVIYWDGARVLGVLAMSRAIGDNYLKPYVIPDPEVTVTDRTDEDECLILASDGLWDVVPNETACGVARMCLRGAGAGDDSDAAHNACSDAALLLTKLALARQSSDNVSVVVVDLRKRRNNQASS

B1: PYL4H82R V97A (AtPYL H82 and V97A) (receptor)
chain: MLAVHRPSSAVSDGDSVQIPMMIASFQKRFPSLSRDSTAARFHTHEVGPNQCCSAVIQEISAPISTVWSVVRRFDNPQAYKRFLKSCSVIGGDGDNAGSLRQVHVVSGLPAASSTERLDILDDERHVISFSVVGGDHRLSNYRSVTTLHPSPISGTVVVESYVVDVPPGNTKEETCDFVDVIVRCNLQSLAKIAENTAAESKKKMSL
notes: also called PYL4H82R (found combined with V97A)
effect on PP2CA activity [1]: did not affect PP2CA activity

B2: PYL4A194T: AtPYL4 ABA receptor mutant polypeptide with A194T substitution (SEQ ID NO. 60; nucleic acid SEQ ID NO: 55); also over-expressed in plants (protein, listed as Arabidopsis thaliana)
chain: MLAVHRPSSAVSDGDSVQIPMMIASFQKRFPSLSRDSTAARFHTHEVGPNQCCSAVIQEISAPISTVWSVVRRFDNPQAYKHFLKSCSVIGGDGDNVGSLRQVHVVSGLPAASSTERLDILDDERHVISFSVVGGDHRLSNYRSVTTLHPSPISGTVVVESYVVDVPPGNTKEETCDFVDVIVRCNLQSLAKITENTAAESKKKMSL
inhibitory effect on the activity of PP2CA with respect to PYL4 [2]: around 20% | inhibitory effect on the activity of PP2CA with respect to PYL4 ([2]; listed as PYL4^A194T): 20% | inhibition of PP2CA ([2]; presence of 1 μM ABA): higher inhibition of PP2CA than PYL4 | relative fluorescence emission of interaction with PP2CA [3]: higher | induction of RAB18 after ABA-treatment ([4]; 10 μM ABA for 3 h): not higher than in non-transformed plants | expression of RAB18 up-regulated compared to non-transformed plants ([4]; absence of exogenous ABA treatment): 6 fold
